Article PMC12466090 (Photochemistry and Photobiology, 2025)

Assays:
[1] = UV-VIS absorption / fluorescence spectroscopy; assay type: physicochemical; details: fluorescence spectrum in washed cells, excitation at 600 nm (Figure S3)
[2] = in water; standard of the relative method; no reference given; cited from earlier work

Compound	form bound to cells (fluorescence spectrum after uptake) [1]	singlet oxygen quantum yield (ΦΔ) of the reference standard [2]
cRGDfK (Arg–Gly–Asp–D–Phe–Lys) (head to tail) [SiPc‐2c(RGDfK)]	monomeric form is bound to cells	
CN(C)c1ccc2nc3ccc(=[N+](C)C)cc-3sc2c1 [methylene blue]		0.52
